Here are results for two molecules from PMC10049731, “Legumain Functions as a Transient TrkB Sheddase” (International Journal of Molecular Sciences, 2023).

Series [1] deals with TrkB Ig2 domain (His283-Glu428) (rat). In words: MST; in solution; TrkB ECD or Ig2 with proBDNF; which partner was labelled is not told; MST buffer 1x PBS pH 7.4, 0.005% Tween 20.
Series [2] addresses T1, TrkB ectodomain (Ser29-Glu428) (rat, UniProt Q63604-1 29-428, several glycosylation forms; labelled with NT-647 RED dye in the MST set-up with labelled TrkB).
T1 construct: Secreted by way of the pHLsec vector; also called TrkB ECD; full-length ectodomain; source: HEK293S, transfected (pHLsec), secreted into medium, purified (Ni-NTA); not shown: His6, C-terminal, kept
The series is described as above. The note with it: both partners purified.

Series [3] concerns the molecule itself. Description: dynamic light scattering; BDNF alone; Figure S4C; conditions not shown.
Series [4] deals with legumain-processed TrkB Ig2 domain (rat). In words: MST; in solution; TrkB variant (intact or legumain-processed) labelled with NT-647 RED and kept constant, unlabelled BDNF (20.5 uM) in a 16-step 1:2 dilution series; 1x PBS pH 7.4, 0.005% Tween 20; 10 min at RT; Monolith NT.115.
The target of series [5] is TrkB Ig2 domain (His283-Glu428) (rat). The series is described as above.
Series [6] concerns the target T1, TrkB ectodomain (Ser29-Glu428). The series is described as above. Particulars: both partners purified.
Series [7] addresses T2, legumain-processed TrkB ectodomain (rat, UniProt Q63604-1 29-391, glycosylated; labelled with NT-647 RED dye in the MST).
T2 construct: TrkB, rat, ectodomain construct Ser29-Glu428 cut by legumain in the membrane linker; dominant cleavage site after Asn391, minor sites after Asp385 and Asn389, so the C-terminus is a mixture; C-terminal limit is that of the dominant cleavage site (Asn391); the His6 tag is lost with the cut fragment; also called legumain-processed TrkB ECD; processed TrkB ECD; source: HEK293S, purified (Ni-NTA), …
The series is described as above. Particulars: both partners purified.

T1 sequence (Q63604 29-428): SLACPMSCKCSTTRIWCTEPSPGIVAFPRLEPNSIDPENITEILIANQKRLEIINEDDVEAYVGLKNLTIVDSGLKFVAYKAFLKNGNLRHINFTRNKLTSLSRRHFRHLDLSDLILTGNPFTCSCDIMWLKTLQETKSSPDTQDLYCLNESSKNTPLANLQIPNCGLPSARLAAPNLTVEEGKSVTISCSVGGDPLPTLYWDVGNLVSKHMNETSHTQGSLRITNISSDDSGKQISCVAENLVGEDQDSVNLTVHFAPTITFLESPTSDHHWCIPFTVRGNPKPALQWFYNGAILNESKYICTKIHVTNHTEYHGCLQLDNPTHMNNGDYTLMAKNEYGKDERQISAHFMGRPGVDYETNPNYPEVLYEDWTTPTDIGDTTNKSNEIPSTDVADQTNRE
T2 sequence (Q63604 29-391): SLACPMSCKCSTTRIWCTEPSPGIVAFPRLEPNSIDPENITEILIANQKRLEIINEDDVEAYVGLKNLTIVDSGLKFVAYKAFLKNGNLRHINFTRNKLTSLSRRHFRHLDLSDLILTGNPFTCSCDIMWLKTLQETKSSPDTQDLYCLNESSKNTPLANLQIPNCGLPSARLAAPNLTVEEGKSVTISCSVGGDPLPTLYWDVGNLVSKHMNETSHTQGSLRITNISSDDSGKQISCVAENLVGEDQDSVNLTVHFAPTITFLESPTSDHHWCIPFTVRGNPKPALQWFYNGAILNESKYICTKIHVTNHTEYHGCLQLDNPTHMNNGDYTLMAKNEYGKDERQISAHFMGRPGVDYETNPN

B1: proBDNF (ligand, rat, UniProt P23363 19-249, looked up)
chain: APMKEANVHGQGNLAYPAVRTHGTLESVNGPRAGSRGLTTTSLADTFEHVIEELLDEDQKVRPNEENHKDADLYTSRVMLSSQVPLEPPLLFLLEEYKNYLDAANMSMRVRRHSDPARRGELSVCDSISEWVTAADKKTAVDMSGGTVTVLEKVPVSKGQLKQYFYETKCNPMGYTKEGCRGIDKRHWNSQCRTTQSYVRALTMDSKKRIGWRFIRIDTSCVCTLTIKRGR
notes: proBDNF, the pro-form of brain-derived neurotrophic factor; also called pro-form of BDNF; source: E. coli Rosetta 2 (DE3), inclusion bodies, folded in vitro, purified (SP-sepharose)
By Kd is commonly meant the concentration at which binding is half-saturated. Regarding B1, the results for the dissociation constant Kd in series [1] and in series [2] were 0.441 µM and 0.306 µM, respectively.

B2: Brain-derived neurotrophic factor (BDNF), mature (His131-Arg249) (ligand, rat, UniProt P23363 131-249, looked up)
chain: HSDPARRGELSVCDSISEWVTAADKKTAVDMSGGTVTVLEKVPVSKGQLKQYFYETKCNPMGYTKEGCRGIDKRHWNSQCRTTQSYVRALTMDSKKRIGWRFIRIDTSCVCTLTIKRGR
modifications: disulfides Cys143-Cys210, Cys188-Cys239, Cys199-Cys241; labelled with NT-647 RED dye in the MST set-up with labelled BDNF
notes: mature BDNF, cut from proBDNF by furin, His131-Arg249; The species rests on the legend 'Preparation of rat TrkB and proBDNF'; the printed residue numbers fit a 249-residue precursor; also called mature BDNF
By stoichiometry N is commonly meant a count of units in the complex or per binding partner. As to B2, in series [3], the “stoichiometry N” value was determined as 2. The Kd in series [4] stood at 0.3 µM; in series [5], 0.067 µM; in series [6], 0.106 ± 0.044 µM; in series [7], 0.188 ± 0.082 µM.
